Substitutions are numbered along the chain they refer to.
Tests used:
Experiment in all cases: EMSA
Settings in all cases: tags: MBP fusion
ZFP SBS#848 = molecular target: T1, ZFP SBS#848 (synthetic, UniProt P08047)
T1 chain: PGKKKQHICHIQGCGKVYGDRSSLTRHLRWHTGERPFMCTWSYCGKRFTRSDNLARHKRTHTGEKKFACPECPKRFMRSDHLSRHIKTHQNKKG
Outline: (§1)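 Purified ZFP was titrated against labeled double-stranded target (1 nM or lower, at least 10-fold below expected Kd) carrying the natural binding site with flanks. Binding buffer was 10 mM Tris pH 7.5, 100 mM KCl, 1 mM MgCl2, 0.1 mM ZnCl2, 5 mM DTT, 10% glycerol, 0.02% BSA, with equilibration for at least 45 min. Bound and free target were separated on a 10% polyacrylamide gel.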

ZFP SBS#836 = molecular target: T2, ZFP SBS#836 (synthetic, UniProt P08047)
T2 chain: T1 chain with D20E, S22G, S23T, T25A
Outline: as §1

ZFP SBS#668 = molecular target: T3, ZFP SBS#668 (synthetic)
T3 chain: T1 chain with D20E, S22G, S23T, T25A, H81A, S83A
Outline: as §1

ZFP SBS#829 = molecular target: T4, ZFP SBS#829 (synthetic)
T4 chain: T1 chain with D20E, R21K, S22A, S23N, H81T, S83K, R84K
Outline: as §1

ZFP SBS#828 = molecular target: T5, ZFP SBS#828 (synthetic)
T5 chain: T1 chain with D20E, R21K, S22A, S23N, H81E, L82R, S83K
Outline: as §1

ZFP SBS#669 = molecular target: T6, ZFP SBS#669 (synthetic)
T6 chain: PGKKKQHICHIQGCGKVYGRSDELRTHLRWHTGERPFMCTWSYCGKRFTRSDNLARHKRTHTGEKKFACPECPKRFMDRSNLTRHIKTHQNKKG
Outline: as §1

ZFP SBS#672 = molecular target: T7, ZFP SBS#672 (synthetic)
T7 chain: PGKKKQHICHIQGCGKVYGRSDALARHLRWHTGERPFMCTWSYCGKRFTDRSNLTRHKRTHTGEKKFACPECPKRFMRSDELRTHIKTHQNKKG
Outline: as §1

ZFP SBS#884 = molecular target: T8, ZFP SBS#884 (synthetic)
T8 chain: T1 chain with D20R, R21S, S22D, H81N, S83V
Outline: as §1

ZFP SBS#817 = molecular target: T9, ZFP SBS#817 (synthetic)
T9 chain: T1 chain with D20R, R21S, S22D, H81N, S83A
Outline: as §1

ZFP SBS#897 = molecular target: T10, ZFP SBS#897 (synthetic)
T10 chain: T1 chain with D20R, R21S, S22D, S23A, T25A, H81N, S83V
Outline: as §1

ZFP SBS#847 = molecular target: T11, ZFP SBS#847 (synthetic)
T11 chain: T7 chain with A23D, A25T, D50Q, R51S, S52G, N53H, E81N, R83T
Outline: as §1

ZFP SBS#835 = molecular target: T12, ZFP SBS#835 (synthetic)
T12 chain: T7 chain with S21A, A23T, A25R, D50Q, R51S, S52G, N53H, E81N, R83T
Outline: as §1

ZFP SBS#801 = ZFP SBS#801 (synthetic)
Sequence of ZFP SBS#801 (synthetic) (chain, as listed by the source): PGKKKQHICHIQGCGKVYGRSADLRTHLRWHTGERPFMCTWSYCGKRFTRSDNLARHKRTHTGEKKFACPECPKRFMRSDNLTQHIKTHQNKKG
Outline: as §1

ZFP SBS#667 = molecular target: T13, ZFP SBS#667 (synthetic)
T13 chain: T1 chain with S23N, N53E, A55R, R56T, H81N, S83A
Outline: as §1

ZFP SBS#804 = ZFP SBS#804 (synthetic)
Outline: as §1

ZFP SBS#803 = molecular target: T14, ZFP SBS#803 (synthetic)
T14 chain: T1 chain with D20Q, R21S, S23D, T25Q, N53E, A55Q, R78Q, D80G, H81S, S83T
Outline: as §1

ZFP SBS#850 = ZFP SBS#850 (synthetic)
Outline: as §1

ZFP SBS#671 = molecular target: T15, ZFP SBS#671 (synthetic)
T15 chain: T7 chain with A23N
Outline: as §1

ZFP SBS#887 = molecular target: T16, ZFP SBS#887 (synthetic)
T16 chain: T1 chain with D20Q, S23A, T25A, N53A, A55S, R78Q, D80G, H81D, S83R, R84T
Outline: as §1

ZFP SBS#894 = molecular target: T17, ZFP SBS#894 (synthetic)
T17 chain: T1 chain with D20Q, S23A, T25A, N53A, A55S, R78Q, D80H, H81D, S83T, R84K
Outline: as §1

ZFP SBS#891 = molecular target: T18, ZFP SBS#891 (synthetic)
T18 chain: T1 chain with D20Q, R21S, T25V, N53A, A55S, R78Q, D80G, H81S, S83R, R84T
Outline: as §1

ZFP SBS#888 = molecular target: T19, ZFP SBS#888 (synthetic)
T19 chain: T1 chain with D20Q, R21S, T25V, N53A, A55S, R78Q, D80H, H81D, S83T, R84K
Outline: as §1

ZFP SBS#818 = ZFP SBS#818 (synthetic)
Outline: as §1

ZFP SBS#825 = ZFP SBS#825 (synthetic)
Outline: as §1

ZFP SBS#673 = ZFP SBS#673 (synthetic)
Sequence of ZFP SBS#673 (synthetic) (chain, as listed by the source): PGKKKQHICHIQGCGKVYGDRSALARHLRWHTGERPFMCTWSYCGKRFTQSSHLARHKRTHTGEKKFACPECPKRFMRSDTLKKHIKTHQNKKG
Outline: as §1

ZFP SBS#670 = molecular target: T20, ZFP SBS#670 (synthetic)
T20 chain: T6 chain with E23N, R25A, T26R, N53A
Outline: as §1

ZFP SBS#842 = molecular target: T21, ZFP SBS#842 (synthetic, UniProt P08047)
T21 chain: T1 chain with S23H, N53A, H81N, S83A
Outline: as §1

ZFP SBS#663 = molecular target: T22, ZFP SBS#663 (synthetic)
T22 chain: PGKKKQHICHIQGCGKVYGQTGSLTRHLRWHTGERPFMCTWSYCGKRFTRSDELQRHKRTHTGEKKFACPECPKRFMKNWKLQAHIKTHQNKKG
Outline: as §1

ZFP SBS#662 = ZFP SBS#662 (synthetic, UniProt P08047)
Sequence of ZFP SBS#662 (P08047 other isoform, or with tags, fused parts or gaps): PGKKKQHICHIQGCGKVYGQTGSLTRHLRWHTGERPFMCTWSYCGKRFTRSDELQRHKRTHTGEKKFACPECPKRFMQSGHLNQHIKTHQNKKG
Outline: as §1

ZFP SBS#664 = molecular target: T23, ZFP SBS#664 (synthetic)
T23 chain: T22 chain with S51A, E53T, Q55R, K78A, N79S, W80S, K81R, Q83A, A84T
Outline: as §1

ZFP SBS#738 = molecular target: T24, ZFP SBS#738 (synthetic)
T24 chain: T1 chain with D20E, S22G, S23T, R26T, N53H, A55S, H81D, S83R
Outline: as §1

ZFP SBS#674 = molecular target: T25, ZFP SBS#674 (synthetic)
T25 chain: T6 chain with S51A, N53T, A55R, D78R, R79S, S80D, N81T, T83K, R84K
Outline: as §1

B1: GGGGAGGCCC (dsDNA)
DNA 1: GGGGAGGCCC
DNA 2: GGGCCTCCCC
- Kd (ZFP SBS#848): 49.5 nM
- Kd (ZFP SBS#836): 24.2 nM

B2: GTGGAGGCCA (dsDNA)
DNA 1: GTGGAGGCCA
DNA 2: TGGCCTCCAC
- Kd (ZFP SBS#668): 1.13 nM

B3: GCGGAGGACC (dsDNA)
DNA 1: GCGGAGGACC
DNA 2: GGTCCTCCGC
- Kd (ZFP SBS#829): 0.52 nM
- Kd (ZFP SBS#828): 0.1 nM

B4: GACGAGTCGG (dsDNA)
DNA 1: GACGAGTCGG
DNA 2: CCGACTCGTC
- Kd (ZFP SBS#669): 90 nM

B5: TCGGACGTGG (dsDNA)
DNA 1: TCGGACGTGG
DNA 2: CCACGTCCGA
- Kd (ZFP SBS#672): 24 nM

B6: GAGGAGGTGA (dsDNA)
DNA 1: GAGGAGGTGA
DNA 2: TCACCTCCTC
- Kd (ZFP SBS#884): 0.15 nM
- Kd (ZFP SBS#817): 0.31 nM
- Kd (ZFP SBS#897): 0.07 nM

B7: TAGGGAGCGT (dsDNA)
DNA 1: TAGGGAGCGT
DNA 2: ACGCTCCCTA
- Kd (ZFP SBS#847): 150 nM
- Kd (ZFP SBS#835): 150 nM

B8: AAGGAGTCGC (dsDNA)
DNA 1: AAGGAGTCGC
DNA 2: GCGACTCCTT
- Kd (ZFP SBS#801): 0.85 nM

B9: GAGTCGGACG (dsDNA)
DNA 1: GAGTCGGACG
DNA 2: CGTCCGACTC
- Kd (ZFP SBS#667): 50 nM

B10: GCAGCGGCTC (dsDNA)
DNA 1: GCAGCGGCTC
DNA 2: GAGCCGCTGC
- Kd (ZFP SBS#804): 82.5 nM
- Kd (ZFP SBS#803): 57.5 nM

B11: CAGGCTGTGG (dsDNA)
DNA 1: CAGGCTGTGG
DNA 2: CCACAGCCTG
- Kd (ZFP SBS#850): 17 nM

B12: TCGGACGAGT (dsDNA)
DNA 1: TCGGACGAGT
DNA 2: ACTCGTCCGA
- Kd (ZFP SBS#671): 64 nM

B13: TCAGTGGTAT (dsDNA)
DNA 1: TCAGTGGTAT
DNA 2: ATACCACTGA
- Kd (ZFP SBS#887): 23.8 nM
- Kd (ZFP SBS#894): 6.15 nM
- Kd (ZFP SBS#891): 18.5 nM
- Kd (ZFP SBS#888): 14 nM

B14: GAATGGGCAG (dsDNA)
DNA 1: GAATGGGCAG
DNA 2: CTGCCCATTC
- Kd (ZFP SBS#818): 167 nM
- Kd (ZFP SBS#825): 37.3 nM

B15: GCGGGTGTCT (dsDNA)
DNA 1: GCGGGTGTCT
DNA 2: AGACACCCGC
- Kd (ZFP SBS#673): 48.3 nM

B16: GACGTGGAGG (dsDNA)
DNA 1: GACGTGGAGG
DNA 2: CCTCCACGTC
- Kd (ZFP SBS#670): 0.57 nM

B17: GAGGTGGGCT (dsDNA)
DNA 1: GAGGTGGGCT
DNA 2: AGCCCACCTC
- Kd (ZFP SBS#842): 5.4 nM

B18: AGAGCGGCAC (dsDNA)
DNA 1: AGAGCGGCAC
DNA 2: GTGCCGCTCT
- Kd (ZFP SBS#663): 115 nM
- Kd (ZFP SBS#662): 50 nM
- Kd (ZFP SBS#664): 125 nM

B19: GCGGGGTCCG (dsDNA)
DNA 1: GCGGGGTCCG
DNA 2: CGGACCCCGC
- Kd (ZFP SBS#738): 120 nM

B20: GCGGCGTCGG (dsDNA)
DNA 1: GCGGCGTCGG
DNA 2: CCGACGCCGC
- Kd (ZFP SBS#674): 27.5 nM

Reference: US20030068675, “Position dependent recognition of GNN nucleotide triplets by zinc fingers” (published 2003)
